The test addresses TIP60, endogenous in C4-2 cells (human (endogenous in C4-2)) (UniProt Q92993). The test can be described thus: co-IP; endogenous proteins, C4-2 lysates; TIP60 immunoprecipitated with anti-TIP60; cells +/- 10 nM MB for 24 h; also cells transfected with siCtrl or siING3 and treated with MB; blot for AR.

One substance from PMC5434536 can be followed below.

TIP60, endogenous in C4-2 cells (human (endogenous in C4-2)), sequence (Q92993 whole entry): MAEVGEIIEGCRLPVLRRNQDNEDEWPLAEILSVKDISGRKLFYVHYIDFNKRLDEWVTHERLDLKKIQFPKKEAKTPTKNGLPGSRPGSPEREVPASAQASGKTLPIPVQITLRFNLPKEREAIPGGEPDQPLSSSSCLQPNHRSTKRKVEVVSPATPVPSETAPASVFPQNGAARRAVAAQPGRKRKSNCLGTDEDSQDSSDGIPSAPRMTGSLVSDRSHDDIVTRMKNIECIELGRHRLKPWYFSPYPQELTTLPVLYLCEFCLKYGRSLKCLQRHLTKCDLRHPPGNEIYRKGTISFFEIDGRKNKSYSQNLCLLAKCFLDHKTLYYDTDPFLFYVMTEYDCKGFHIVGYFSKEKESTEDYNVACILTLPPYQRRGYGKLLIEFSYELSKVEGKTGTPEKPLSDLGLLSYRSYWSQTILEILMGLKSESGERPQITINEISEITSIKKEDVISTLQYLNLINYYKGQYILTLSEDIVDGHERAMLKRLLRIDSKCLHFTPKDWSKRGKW
androgen receptor (AR), endogenous in C4-2 cells, sequence (P10275 whole entry): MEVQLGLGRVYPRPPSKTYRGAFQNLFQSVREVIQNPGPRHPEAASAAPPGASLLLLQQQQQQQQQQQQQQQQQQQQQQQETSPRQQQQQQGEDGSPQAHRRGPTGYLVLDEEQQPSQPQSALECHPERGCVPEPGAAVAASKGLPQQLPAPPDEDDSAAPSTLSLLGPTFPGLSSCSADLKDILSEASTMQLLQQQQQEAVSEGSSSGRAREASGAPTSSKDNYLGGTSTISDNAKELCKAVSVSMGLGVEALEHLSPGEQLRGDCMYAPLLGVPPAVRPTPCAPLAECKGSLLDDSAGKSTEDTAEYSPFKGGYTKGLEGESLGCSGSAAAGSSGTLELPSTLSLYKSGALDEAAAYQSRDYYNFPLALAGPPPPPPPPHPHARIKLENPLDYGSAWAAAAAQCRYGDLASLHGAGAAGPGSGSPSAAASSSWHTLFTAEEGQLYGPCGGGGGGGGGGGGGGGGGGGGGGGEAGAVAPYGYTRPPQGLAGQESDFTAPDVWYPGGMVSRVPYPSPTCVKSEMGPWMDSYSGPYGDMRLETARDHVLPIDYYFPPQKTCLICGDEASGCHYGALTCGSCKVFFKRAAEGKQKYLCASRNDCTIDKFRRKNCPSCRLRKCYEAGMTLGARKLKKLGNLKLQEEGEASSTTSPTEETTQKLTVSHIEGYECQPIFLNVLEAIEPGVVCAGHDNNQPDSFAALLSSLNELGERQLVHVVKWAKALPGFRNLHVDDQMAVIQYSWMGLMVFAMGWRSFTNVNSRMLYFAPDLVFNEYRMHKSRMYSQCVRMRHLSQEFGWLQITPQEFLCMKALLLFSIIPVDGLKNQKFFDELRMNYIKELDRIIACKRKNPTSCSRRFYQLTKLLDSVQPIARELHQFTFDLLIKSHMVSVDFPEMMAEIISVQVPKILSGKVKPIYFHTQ

Regarding “androgen receptor (AR), endogenous in C4-2 cells (from UniProt P10275 1-920)”, the fold reduction of the AR-TIP60 association with siING3 against siCtrl was 3 fold.
